Test results: the Human Domainome abundance scans (Beltran et al. 2025)
± gives the uncertainty stated by the source.

B1: Death-inducer obliterator 1, residues 263 to 321; numbered along this chain, Q9BTC0 (parent)
chain: GYDPNALYCICRQPHNNRFMICCDRCEEWFHGDCVGISEARGRLLERNGEDYICPNCTI

Variants of: B1
Experiment: abundance fitness (aPCA) (normalised: wild type 0, dead -1); higher = more abundant; growth selection in yeast, the domain comes from the species named
Conditions: Homo sapiens

Row | Variant | abundance fitness
1 | GYDPNALYCICRQPHNNRFMICCDRCSEWFHGDCVGISEARGRLLERNGEDYICPNCTI [E27S] | -0.033 ± 0.053
2 | GYDPNALYCICRQPHNNRFMICCDRCWEWFHGDCVGISEARGRLLERNGEDYICPNCTI [E27W] | -0.09 ± 0.076
3 | GYDPNALYCICRQPHNNRFMICCDRCIEWFHGDCVGISEARGRLLERNGEDYICPNCTI [E27I] | -0.158 ± 0.072
4 | GYDPNALYCICRQPHNNRFMICCDRCLEWFHGDCVGISEARGRLLERNGEDYICPNCTI [E27L] | -0.107 ± 0.05
5 | GYDPNALYCICRQPHNNRFMICCDRCDEWFHGDCVGISEARGRLLERNGEDYICPNCTI [E27D] | 0.012 ± 0.11
6 | GYDPNALYCICRQPHNNRFMICCDRCREWFHGDCVGISEARGRLLERNGEDYICPNCTI [E27R] | -0.071 ± 0.047
7 | GYDPNALYCICRQPHNNRFMICCDRCVEWFHGDCVGISEARGRLLERNGEDYICPNCTI [E27V] | -0.193 ± 0.084
8 | GYDPNALYCICRQPHNNRFMICCDRCQEWFHGDCVGISEARGRLLERNGEDYICPNCTI [E27Q] | -0.066 ± 0.11
9 | GYDPNALYCICRQPHNNRFMICCDRCPEWFHGDCVGISEARGRLLERNGEDYICPNCTI [E27P] | -0.004 ± 0.082
10 | GYDPNALYCICRQPHNNRFMICCDRCTEWFHGDCVGISEARGRLLERNGEDYICPNCTI [E27T] | -0.007 ± 0.067
11 | GYDPNALYCICRQPHNNRFMICCDRCKEWFHGDCVGISEARGRLLERNGEDYICPNCTI [E27K] | 0.237 ± 0.068
12 | GYDPNALYCICRQPHNNRFMICCDRCYEWFHGDCVGISEARGRLLERNGEDYICPNCTI [E27Y] | 0.015 ± 0.067
13 | GYDPNALYCICRQPHNNRFMICCDRCCEWFHGDCVGISEARGRLLERNGEDYICPNCTI [E27C] | -0.237 ± 0.12
14 | GYDPNALYCICRQPHNNRFMICCDRCGEWFHGDCVGISEARGRLLERNGEDYICPNCTI [E27G] | -0.074 ± 0.072
15 | GYDPNALYCICRQPHNNRFMICCDRCEEWNHGDCVGISEARGRLLERNGEDYICPNCTI [F30N] | -0.013 ± 0.087
16 | GYDPNALYCICRQPHNNRFMICCDRCEEWVHGDCVGISEARGRLLERNGEDYICPNCTI [F30V] | -0.327 ± 0.12
17 | GYDPNALYCICRQPHNNRFMICCDRCEEWCHGDCVGISEARGRLLERNGEDYICPNCTI [F30C] | -0.08 ± 0.081
18 | GYDPNALYCICRQPHNNRFMICCDRCEEWWHGDCVGISEARGRLLERNGEDYICPNCTI [F30W] | -0.325 ± 0.12
19 | GYDPNALYCICRQPHNNRFMICCDRCEEWRHGDCVGISEARGRLLERNGEDYICPNCTI [F30R] | -0.306 ± 0.086
20 | GYDPNALYCICRQPHNNRFMICCDRCEEWIHGDCVGISEARGRLLERNGEDYICPNCTI [F30I] | -0.289 ± 0.1
21 | GYDPNALYCICRQPHNNRFMICCDRCEEWQHGDCVGISEARGRLLERNGEDYICPNCTI [F30Q] | -0.471 ± 0.15
22 | GYDPNALYCICRQPHNNRFMICCDRCEEWYHGDCVGISEARGRLLERNGEDYICPNCTI [F30Y] | -0.041 ± 0.093
23 | GYDPNALYCICRQPHNNRFMICCDRCEEWLHGDCVGISEARGRLLERNGEDYICPNCTI [F30L] | -0.006 ± 0.051

Row | Variant | abundance fitness
24 | GYDPNALYCICRQPHNNRFMICCDRCEEWAHGDCVGISEARGRLLERNGEDYICPNCTI [F30A] | -0.283 ± 0.086
25 | GYDPNALYCICRQPHNNRFMICCDRCEEWMHGDCVGISEARGRLLERNGEDYICPNCTI [F30M] | 0.013 ± 0.048
26 | GYDPNALYCICRQPHNNRFMICCDRCEEWHHGDCVGISEARGRLLERNGEDYICPNCTI [F30H] | 0.004 ± 0.15
27 | GYDPNALYCICRQPHNNRFMICCDRCEEWDHGDCVGISEARGRLLERNGEDYICPNCTI [F30D] | -0.749 ± 0.13
28 | GYDPNALYCICRQPHNNRFMICCDRCEEWSHGDCVGISEARGRLLERNGEDYICPNCTI [F30S] | -0.266 ± 0.054
29 | GYDPNALYCICRQPHNNRFMICCDRCEEWTHGDCVGISEARGRLLERNGEDYICPNCTI [F30T] | -0.38 ± 0.092
30 | GYDPNALYCICRQPHNNRFMICCDRCEEWPHGDCVGISEARGRLLERNGEDYICPNCTI [F30P] | -0.711 ± 0.17
31 | GYDPNALYCICRQPHNNRFMICCDRCEEWKHGDCVGISEARGRLLERNGEDYICPNCTI [F30K] | -0.349 ± 0.065
32 | GYDPNALYCICRQPHNNRFMICCDRCEEWGHGDCVGISEARGRLLERNGEDYICPNCTI [F30G] | -0.269 ± 0.14
33 | GYDPNALYCICRQPHNNRFMICCDRCEEWEHGDCVGISEARGRLLERNGEDYICPNCTI [F30E] | -0.954 ± 0.34
34 | GYDPNALYCICRQPHNNRFMICCDRCEVWFHGDCVGISEARGRLLERNGEDYICPNCTI [E28V] | 0.015 ± 0.058
35 | GYDPNALYCICRQPHNNRFMICCDRCEKWFHGDCVGISEARGRLLERNGEDYICPNCTI [E28K] | 0.045 ± 0.065
36 | GYDPNALYCICRQPHNNRFMICCDRCEWWFHGDCVGISEARGRLLERNGEDYICPNCTI [E28W] | -0.019 ± 0.098
37 | GYDPNALYCICRQPHNNRFMICCDRCEAWFHGDCVGISEARGRLLERNGEDYICPNCTI [E28A] | -0.153 ± 0.076
38 | GYDPNALYCICRQPHNNRFMICCDRCEYWFHGDCVGISEARGRLLERNGEDYICPNCTI [E28Y] | -0.122 ± 0.09
39 | GYDPNALYCICRQPHNNRFMICCDRCEHWFHGDCVGISEARGRLLERNGEDYICPNCTI [E28H] | -0.075 ± 0.084
40 | GYDPNALYCICRQPHNNRFMICCDRCEFWFHGDCVGISEARGRLLERNGEDYICPNCTI [E28F] | -0.028 ± 0.07
41 | GYDPNALYCICRQPHNNRFMICCDRCETWFHGDCVGISEARGRLLERNGEDYICPNCTI [E28T] | 0.065 ± 0.066
42 | GYDPNALYCICRQPHNNRFMICCDRCESWFHGDCVGISEARGRLLERNGEDYICPNCTI [E28S] | -0.106 ± 0.057
43 | GYDPNALYCICRQPHNNRFMICCDRCEIWFHGDCVGISEARGRLLERNGEDYICPNCTI [E28I] | -0.235 ± 0.12
44 | GYDPNALYCICRQPHNNRFMICCDRCEQWFHGDCVGISEARGRLLERNGEDYICPNCTI [E28Q] | -0.198 ± 0.1
45 | GYDPNALYCICRQPHNNRFMICCDRCECWFHGDCVGISEARGRLLERNGEDYICPNCTI [E28C] | -0.032 ± 0.11
